Test results from paper PMC2192648.
Read-outs that look alike come from different tables or passages of the source.

B1: Vps35p (natural protein)
chain: MAYADSPENAIAVIKQRTALMNRCLSQHKLMESLQHTSIMLTELRNPNLSPKKYYELYVIIFDSLTNLSTYLIENHPQNHHLADLYELVQYTGNVVPRLYLMITVGTSYLTFNEAPKKEILKDMIEMCRGVQNPIRGLFLRYYLSQRTKELLPEDDPSFNSQFIMNNFIEMNKLWVRLQHQGPLRERETRTRERKELQILVGSQLVRLSQIIDDNFQMYKQDILPTILEQVIQCRDLVSQEYLLDVICQVFADEFHLKTLDTLLQTTLHLNPDVSINKIVLTLVDRLNDYVTRQLEDDPNATSTNAYLDMDVFGTFWDYLTVLNHERPDLSLQQFIPLVESVIVLSLKWYPNNFDNLNKLFELVLQKTKDYGQKNISLESEHLFLVLLSFQNSKLQLTSSTTAPPNSPVTSKKHFIFQLISQCQAYKNILALQSISLQKKVVNEIIDILMDREVEEMADNDSESKLHPPGHSAYLVIEDKLQVQRLLSICEPLIISRSGPPANVASSDTNVDEVFFNRHDEEESWILDPIQEKLAHLIHWIMNTTSRKQTMKNKIQFSLEAQLEILLLIKSSFIKGGINVKYTFPAIITNFWKLMRKCRMIQEYLLKKRPDNKTLLSHYSNLLKQMFKFVSRCINDIFNSCNNSCTDLILKLNLQCAILADQLQLNEISYDFFSQAFTIFEESLSDSKTQLQALIYIAQSLQKTRSLYKEAYYDSLIVRCTLHGSKLLKKQDQCRAVYLCSHLWWATEISNIGEEEGITDNFYRDGKRVLECLQRSLRVADSIMDNEQSCELMVEILNRCLYYFIHGDESETHISIKYINGLIELIKTNLKSLKLEDNSASMITNSISDLHITGENNVKASSNADDGSVITDKESNVAIGSDGTYIQLNTLNGSSTLIRGVVATASGSKLLHQLKYIPIHHFRRTCEYIESQREVDDRFKVIYV

What was measured:
Assay in all cases: cross-linking + co-IP
[1] = biological target: Vps35p (S. cerevisiae (endogenous in strain AHY63)) (UniProt P34110)
[2] = biological target: A-ALP (S. cerevisiae)
[3] = biological target: A-ALP (S. cerevisiae); remark: listed apart in the source
[4] = biological target: A-ALP (S. cerevisiae); remark: listed apart in the source

Molecule | percent of A-ALP immunoprecipitated by anti-Vps35p after cross-linking [1] [%] | percent of total Vps35p cross-linked [2] [%] | percent of total Vps35p cross-linked [3] [%] | percent of total Vps35p cross-linked [4] [%]
A-ALP | 5 | – | – | –
B1 | – | 10 | 26 | 16
